Assay [1] deals with T1, human CD38 on target cells (HEK293/hCD20/hCD38, MOLP8, NALM-6, NALM-6/hPD-L1) (human, UniProt P28907 1-300). The assay is described as follows: cell-based or functional assay.
For assay [2], the target named is T1, human CD38 on target cells …. Briefly: cell-based or functional assay. The source holds these as a separate data set.
Assay [3] shares this target. The assay is described as follows: cell-based or functional assay. This is another data set of the same source.
The target is the same in assay [4]. Briefly: cell-based or functional assay. The source holds these as a separate data set.
In assay [5] the target is T2, Dimeric human CD28 with a c-terminal mouse Fc tag (hCD28.mFc) (human).
T2 construct: also called bsAb2012; Human CD28 extracellular domain (N19-P152).mFc
The assay is described as follows: SPR (Biacore, 25 C); group summary of Table 9.
Experimental: (§1) For CD28 kinetic determinations, SPR experiments were performed using a Biacore 3000 instrument at 25° C. Dimeric human CD28 with a c-terminal mouse Fc tag (hCD28.mFc, bsAb2012) were captured for 37 seconds at a flow rate of 8 uL/min on a CM5 anti-mouseFc-(GE)-coupled surface. Approximately 150 RU of hCD28.mFc were captured. […] Dissociation was measured for 10 minutes. The KD and t_{1/2} were calculated by fitting the double-referenced sensorgrams to a 1:1 binding model.

In assay [6] the target is T3, Monomeric human CD38 with a c-terminal myc-myc-hexahistidine tag (hCD38.mmH) (human, UniProt P28907 43-300).
T3 construct: also called bsAb3305; not shown: C-terminal myc-myc-hexahistidine tag
The assay is described as follows: SPR (Biacore 3000, 25 C); bsAb captured on anti-human Fc, hCD38.mmH injected; 1:1 fit. For orientation: In SPR one partner is held on a chip, and binding of the other changes the refractive index at the surface.

Assay [7] addresses T2, Dimeric human CD28 with a c-terminal …. The assay is described as follows: SPR (Biacore 3000, 25 C); hCD28.mFc captured on anti-mouse Fc, bsAb injected; 1:1 fit.
Experimental: as §1
Assay [8] addresses T3, Monomeric human CD38 with a c-terminal …. Briefly: SPR (Biacore, 25 C); group summary of Table 8.
Experimental: For CD38 kinetic determinations, SPR experiments were performed using a Biacore 3000 instrument at 25° C. Antibodies were captured for 37 seconds at a flow rate of 8 uL/min on a CM5 anti-humanFc-(bsAb2567)-coupled surface. Approximately 230 RU of each antibody were captured. […] Dissociation was measured for 10 minutes. The KD and t½ were calculated by fitting the double-referenced sensorgrams to a 1:1 binding model.

B1: bsAb7945 (bispecific antibody, human IgG4 S228P, kappa)
heavy 1: QVQLVQSGAEVKKPGSSVKVSCKASGGPFRSSSFSWVRQAPGQGLEWMGGIIPILGKTNYAQKFQGRITIVTDESTTTVYMELSSLRSEDTAVFYCVRGSSLFDYWGQGTLVTVSSASTKGPSVFPLAPCSRSTSESTAALGCLVKDYFPEPVTVSWNSGALTSGVHTFPAVLQSSGLYSLSSVVTVPSSSLGTKTYTCNVDHKPSNTKVDKRVESKYGPPCPPCPAPPVAGPSVFLFPPKPKDTLMISRTPEVTCVVVDVSQEDPEVQFNWYVDGVEVHNAKTKPREEQFNSTYRVVSVLTVLHQDWLNGKEYKCKVSNKGLPSSIEKTISKAKGQPREPQVYTLPPSQEEMTKNQVSLTCLVKGFYPSDIAVEWESNGQPENNYKTTPPVLDSDGSFFLYSRLTVDKSRWQEGNVFSCSVMHEALHNHYTQKSLSLSLGK
heavy 2: QVQLQESGPGLVKPSETLSLTCTVSGGSISSYYWSWIRQPPGKGLEWIGYIYYSGITHYNPSLKSRVTISVDTSKIQFSLKLSSVTAADTAVYYCARWGVRRDYYYYGMDVWGQGTTVTVSSASTKGPSVFPLAPCSRSTSESTAALGCLVKDYFPEPVTVSWNSGALTSGVHTFPAVLQSSGLYSLSSVVTVPSSSLGTKTYTCNVDHKPSNTKVDKRVESKYGPPCPPCPAPPVAGPSVFLFPPKPKDTLMISRTPEVTCVVVDVSQEDPEVQFNWYVDGVEVHNAKTKPREEQFNSTYRVVSVLTVLHQDWLNGKEYKCKVSNKGLPSSIEKTISKAKGQPREPQVYTLPPSQEEMTKNQVSLTCLVKGFYPSDIAVEWESNGQPENNYKTTPPVLDSDGSFFLYSRLTVDKSRWQEGNVFSCSVMHEALHNRFTQKSLSLSPGK
light: not shown
Consider B1, for which, in assay [1], the “IFNγ release EC50; T cells + HEK293/hCD20/hCD38, + TAAxCD3 (bsAb1979)” value was found to be 0.123 nM and the “IFNγ release EC50; T cells + MOLP8, + TAAxCD3 (bsAb5458)” value turned out to be 0.00424 nM. For the same molecule, in assay [2], the “T-cell proliferation EC50; T cells + HEK293/hCD20/hCD38, + IgG4^P isotype control” value came out at 45.6 nM and the “T-cell proliferation EC50; T cells + HEK293/hCD20/hCD38, + TAAxCD3 (bsAb1979)” value came out at 0.000894 nM. Moreover, in assay [3], the “IL2 release EC50; T cells + NALM-6, + Cemiplimab” value came to 0.0981 nM; the “IL2 release EC50; T cells + NALM-6/hPD-L1, + Cemiplimab” value stood at 0.143 nM; the “IL2 release EC50; T cells + NALM-6/hPD-L1, + IgG4^P” value turned out to be 0.169 nM. In assay [4], the “IL2 release EC50; T cells + HEK293/hCD20/hCD38, + IgG4^P isotype control” value came out at 41.4 nM; the “IL2 release EC50; T cells + HEK293/hCD20/hCD38, + TAAxCD3 (bsAb1979)” value turned out to be 0.00502 nM; the “IL2 release EC50; T cells + MOLP8, + IgG4^P isotype control” value turned out to be 0.00971 nM.

B2: bsAb6031 (bispecific antibody, human IgG4 S228P, kappa)
heavy 1: EVQLVESGGGLVQPGRSLRLSCAASGFTFDDYAMHWVRQAPGKGLEWVSGISWKSDNIGYADSVKGRFTISRDNAKNSLYLQMNSLRAEDTALYYCAKALGGWKFDYYYGMDVWGQGTTVTVSSASTKGPSVFPLAPCSRSTSESTAALGCLVKDYFPEPVTVSWNSGALTSGVHTFPAVLQSSGLYSLSSVVTVPSSSLGTKTYTCNVDHKPSNTKVDKRVESKYGPPCPPCPAPPVAGPSVFLFPPKPKDTLMISRTPEVTCVVVDVSQEDPEVQFNWYVDGVEVHNAKTKPREEQFNSTYRVVSVLTVLHQDWLNGKEYKCKVSNKGLPSSIEKTISKAKGQPREPQVYTLPPSQEEMTKNQVSLTCLVKGFYPSDIAVEWESNGQPENNYKTTPPVLDSDGSFFLYSRLTVDKSRWQEGNVFSCSVMHEALHNHYTQKSLSLSLGK
heavy 2: EVQLVESGGGLVQPGGSLRLSCAASGFTFSRNNMHWVRQAPGKGLEYVSGISSNGGRTYYADSVKGRFTISRDNSKNTLYLQMGGLRAADMAVYFCTRDDELLSFDYWGQGTLVTVSSASTKGPSVFPLAPCSRSTSESTAALGCLVKDYFPEPVTVSWNSGALTSGVHTFPAVLQSSGLYSLSSVVTVPSSSLGTKTYTCNVDHKPSNTKVDKRVESKYGPPCPPCPAPPVAGPSVFLFPPKPKDTLMISRTPEVTCVVVDVSQEDPEVQFNWYVDGVEVHNAKTKPREEQFNSTYRVVSVLTVLHQDWLNGKEYKCKVSNKGLPSSIEKTISKAKGQPREPQVYTLPPSQEEMTKNQVSLTCLVKGFYPSDIAVEWESNGQPENNYKTTPPVLDSDGSFFLYSRLTVDKSRWQEGNVFSCSVMHEALHNRFTQKSLSLSPGK
light: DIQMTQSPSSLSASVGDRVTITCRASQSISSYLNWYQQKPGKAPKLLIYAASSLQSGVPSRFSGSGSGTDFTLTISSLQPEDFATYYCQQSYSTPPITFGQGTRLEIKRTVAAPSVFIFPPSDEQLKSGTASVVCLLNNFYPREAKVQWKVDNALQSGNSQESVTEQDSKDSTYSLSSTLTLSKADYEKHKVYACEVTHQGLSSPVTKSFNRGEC
notes: also called anti-CD38×CD28 bispecific antibody
B2: in assay [5], the Kd (commonly the constant that tells how readily two partners part at equilibrium) is under 26 nM. Besides, in assay [1], the “IFNγ release EC50; T cells + HEK293/hCD20/hCD38, + TAAxCD3 (bsAb1979)” value is 0.294 nM and the “IFNγ release EC50; T cells + MOLP8, + TAAxCD3 (bsAb5458)” value was 0.748 nM. In addition, in assay [6], binding was put at a Kd of 7.08 nM; the koff – broadly, the rate constant with which the complex falls apart – came to 0.000748 s⁻¹; the kon (in general, the rate constant with which the complex forms) turned out to be 106000 M⁻¹ s⁻¹; the t½ – broadly, the time in which the quantity being followed falls by half – is 15.4 min. Besides, in assay [2], the “T-cell proliferation EC50; T cells + HEK293/hCD20/hCD38, + TAAxCD3 (bsAb1979)” value amounted to 0.143 nM and the “T-cell proliferation EC50; T cells + MOLP8, + IgG4^P isotype control” value amounted to 0.467 nM. Moreover, in assay [3], the “IL2 release EC50; T cells + NALM-6, + Cemiplimab” value amounted to 2.44 nM; the “IL2 release EC50; T cells + NALM-6, + IgG4^P” value is 1.68 nM; the “IL2 release EC50; T cells + NALM-6/hPD-L1, + Cemiplimab” value stood at 4.39 nM; the “IL2 release EC50; T cells + NALM-6/hPD-L1, + IgG4^P” value stood at 2.64 nM. Moreover, in assay [7], the affinity, expressed as Kd, was 25.9 nM; the koff turned out to be 0.00149 s⁻¹; the kon is 57400 M⁻¹ s⁻¹; the t½ was determined as 7.8 min. Moreover, in assay [4], the “IL2 release EC50; T cells + HEK293/hCD20/hCD38, + TAAxCD3 (bsAb1979)” value was determined as 0.199 nM; the “IL2 release EC50; T cells + MOLP8, + IgG4^P isotype control” value turned out to be 0.653 nM; the “IL2 release EC50; T cells + MOLP8, + TAAxCD3 (bsAb5458)” value was 1.02 nM. For the same molecule, the Kd in assay [8] is under 10 nM.

The record behind these values is patent US20220089766A1 (published 2022).
